In test [1] the target is Fc-tagged wild-type RBD (SARS-CoV-2, UniProt P0DTC2). Nature of the test: BLI.
In test [2] the target is His-tagged RBD protein of SARS-CoV-2 (SARS-CoV-2, wild type (Wuhan-Hu-1 …, UniProt P0DTC2)). Nature of the test: BLI. On the technique in general: BLI is a label-free optical method that tracks binding on a fibre tip over time.

Two molecules from paper PMC8820655 (bioRxiv, 2022) can be followed below.

The term IC50 denotes the concentration that gives 50% inhibition. A lower IC50 goes with greater potency.

B1: CoV2–14 (antibody, V domains shown)
VH: EVQLQQSGPGLVKPSQTLSLTCAISGDSVSSNSAAWNWIRQSPSRGLEWLGRTYYRSKWYNDYAVSVKSRITINPDTSKNQFSLQLNSVTPEDTAVYYCAREEQQLVHDYYYYGMDVWGQGTMVTVSS
VL: QAVVTQPASVSGSPGQSITISCTGTSSDIGAYNYISWYQQHPGKAPKLIIYEVSNRPSGISYRFSGSKSGNTASLTISGLQAEDEANYYCSSYAGSISFGGGTKVTVL
In test [1], B1 gave an IC50 of 10.6 nM. Besides, the “fold change of the avidity KD, RBD loaded at 1000 ng/ml against 40 ng/ml” value in test [2] is 2 fold.

B2: CoV2–06 (antibody, V domains shown)
VH: QVELQESGPGLVKPSGTLSLTCAVSGGSISSNNWWTWVRQPPGKGLEWIGEIHHSGGTNYNPSLKSRVTMSVDKSKNQFSLNLYSVTAADTAVYYCTRDRAGGTYSGFDFWGQGTLVTVSS
VL: QAVVTQPASVSGSPGQSITISCTGTSSDVGGYNYVSWYQQHPGKAPKLMIYDVSNRPSGVSNRFSGSKSGNTASLTISGLQAEDEADYYCSSYTSSSTVVFGGGTKVTVL
B2 displayed a half-inhibitory concentration (IC50) in test [1] of 39.8 nM. Also, the “fold change of the avidity KD, RBD loaded at 1000 ng/ml against 40 ng/ml” value in test [2] is 46 fold.
